Results on ten proteins are retold here after US20150140169.

For the data set, the target named is T1, alpha-s1 casein from Bos taurus.
T1 chain: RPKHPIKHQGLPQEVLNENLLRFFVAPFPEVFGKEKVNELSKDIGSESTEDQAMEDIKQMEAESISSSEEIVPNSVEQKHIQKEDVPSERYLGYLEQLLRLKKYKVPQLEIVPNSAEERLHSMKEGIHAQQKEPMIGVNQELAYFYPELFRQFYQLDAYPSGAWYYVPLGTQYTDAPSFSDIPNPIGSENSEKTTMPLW

B1: Maxiren (recombinant wild-type calf chymosin B) (protein)
chain: GEVASVPLTNYLDSQYFGKIYLGTPPQEFTVLFDTGSSDFWVPSIYCKSNACKNHQRFDPRKSSTFQNLGKPLSIHYGTGSMQGILGYDTVTVSNIVDIQQTVGLSTQEPGDVFTYAEFDGILGMAYPSLASEYSIPVFDNMMNRHLVAQDLFSVYMDRNGQESMLTLGAIDPSYYTGSLHWVPVTVQQYWQFTVDSVTISGVVVACEGGCQAILDTGTSKLVGPSSDILNIQQAIGATQNQYGEFDIDCDNLSYMPTVVFEINGKMYPLTPSAYTSQDQGFCTSGFQSENHSQKWILGDVFIREYYSVFDRANNLVGLAKAI
For B1, the (αSN1-1)/(αSN1), 6 hours, 11° C. (average) was determined as 1.7; the (αSN1-1)/(αSN1), 24 hours, 11° C. (average) was determined as 6.3; the “hydrolysis of the first cut in alpha-s1-casein” value was “This rapid first cut is similar to the situation with wild-type calf chymosin (Maxiren)”; the small, 6 hours, 11° C. came to 0 Volume. Besides, the small, 16 hours, 30° C. turned out to be 8.1e+06 Volume; the small, 24 hours, 11° C. came to 6.7e+06 Volume; the αs1-I CN, 6 hours, 11° C. worked out at 2.12e+07 Volume; the αs1-I CN, 6 hours, 11° C. (average) amounted to 2.63e+07 Volume. The protein also came in with a αs1-I CN, 16 hours, 30° C. of 600000 Volume; a αs1-I CN, 24 hours, 11° C. of 1.59e+07 Volume; a αs1-I CN, 24 hours, 11° C. (average) of 2.52e+07 Volume; a αs1-I CN/αs1 CN, 6 hours, 11° C. of 1.9. For the same protein, the αs1-I CN/αs1 CN, 24 hours, 11° C. came to 9.7; the αs1 CN, 6 hours, 11° C. is 1.14e+07 Volume; the αs1 CN, 6 hours, 11° C. (average) is 1.58e+07 Volume; the αs1 CN, 16 hours, 30° C. came out at 900000 Volume. Also, the αs1 CN, 24 hours, 11° C. was 1.6e+06 Volume and the αs1 CN, 24 hours, 11° C. (average) worked out at 4e+06 Volume.

B2: camel chymosin variant #138 (F223E) (protein)
chain: GKVAREPLTSYLDSQYFGKIYIGTPPQEFTVVFDTGSSDLWVPSIYCKSNVCKNHHRFDPRKSSTFRNLGKPLSIHYGTGSMEGFLGYDTVTVSNIVDPNQTVGLSTEQPGEVFTYSEFDGILGLAYPSLASEYSVPVFDNMMDRHLVARDLFSVYMDRNGQGSMLTLGAIDPSYYTGSLHWVPVTLQQYWQFTVDSVTINGVAVACVGGCQAILDTGTSVLEGPSSDILKIQMAIGATENRYGEFDVNCGNLRSMPTVVFEINGRDYPLSPSAYTSKDQGFCTSGFQGDNNSELWILGDVFIREYYSVFDRANNRVGLAKAI
The protein B2 came in with a (αSN1-1)/(αSN1), 6 hours, 11° C. of 0.6; a (αSN1-1)/(αSN1), 24 hours, 11° C. of 1.4; a αs1-I CN, 6 hours, 11° C. of 2e+07 Volume; a αs1-I CN, 24 hours, 11° C. of 2.47e+07 Volume. Also, the αs1 CN, 6 hours, 11° C. was 3.29e+07 Volume and the αs1 CN, 24 hours, 11° C. amounted to 1.74e+07 Volume.

B3: camel chymosin variant #142 (F223Q) (protein)
chain: GKVAREPLTSYLDSQYFGKIYIGTPPQEFTVVFDTGSSDLWVPSIYCKSNVCKNHHRFDPRKSSTFRNLGKPLSIHYGTGSMEGFLGYDTVTVSNIVDPNQTVGLSTEQPGEVFTYSEFDGILGLAYPSLASEYSVPVFDNMMDRHLVARDLFSVYMDRNGQGSMLTLGAIDPSYYTGSLHWVPVTLQQYWQFTVDSVTINGVAVACVGGCQAILDTGTSVLQGPSSDILKIQMAIGATENRYGEFDVNCGNLRSMPTVVFEINGRDYPLSPSAYTSKDQGFCTSGFQGDNNSELWILGDVFIREYYSVFDRANNRVGLAKAI
The protein B3 yielded a (αSN1-1)/(αSN1), 6 hours, 11° C. of 0.7; a (αSN1-1)/(αSN1), 24 hours, 11° C. of 1.7; a αs1-I CN, 6 hours, 11° C. of 2.55e+07 Volume; a αs1-I CN, 24 hours, 11° C. of 1.75e+07 Volume. Besides, the αs1 CN, 6 hours, 11° C. amounted to 3.72e+07 Volume and the αs1 CN, 24 hours, 11° C. came to 1.02e+07 Volume.

B4: camel chymosin variant #140 (F223M) (protein)
chain: GKVAREPLTSYLDSQYFGKIYIGTPPQEFTVVFDTGSSDLWVPSIYCKSNVCKNHHRFDPRKSSTFRNLGKPLSIHYGTGSMEGFLGYDTVTVSNIVDPNQTVGLSTEQPGEVFTYSEFDGILGLAYPSLASEYSVPVFDNMMDRHLVARDLFSVYMDRNGQGSMLTLGAIDPSYYTGSLHWVPVTLQQYWQFTVDSVTINGVAVACVGGCQAILDTGTSVLMGPSSDILKIQMAIGATENRYGEFDVNCGNLRSMPTVVFEINGRDYPLSPSAYTSKDQGFCTSGFQGDNNSELWILGDVFIREYYSVFDRANNRVGLAKAI
The protein B4 registered a (αSN1-1)/(αSN1), 6 hours, 11° C. of 0.7; a (αSN1-1)/(αSN1), 24 hours, 11° C. of 2; a αs1-I CN, 6 hours, 11° C. of 2.34e+07 Volume; a αs1-I CN, 24 hours, 11° C. of 2.27e+07 Volume. Besides, the αs1 CN, 6 hours, 11° C. was found to be 3.22e+07 Volume and the αs1 CN, 24 hours, 11° C. was found to be 1.14e+07 Volume.

B5: camel chymosin variant #139 (F223L) (protein)
chain: GKVAREPLTSYLDSQYFGKIYIGTPPQEFTVVFDTGSSDLWVPSIYCKSNVCKNHHRFDPRKSSTFRNLGKPLSIHYGTGSMEGFLGYDTVTVSNIVDPNQTVGLSTEQPGEVFTYSEFDGILGLAYPSLASEYSVPVFDNMMDRHLVARDLFSVYMDRNGQGSMLTLGAIDPSYYTGSLHWVPVTLQQYWQFTVDSVTINGVAVACVGGCQAILDTGTSVLLGPSSDILKIQMAIGATENRYGEFDVNCGNLRSMPTVVFEINGRDYPLSPSAYTSKDQGFCTSGFQGDNNSELWILGDVFIREYYSVFDRANNRVGLAKAI
In turn, B5 registered a (αSN1-1)/(αSN1), 6 hours, 11° C. of 1.2; a (αSN1-1)/(αSN1), 24 hours, 11° C. of 4.3; a αs1-I CN, 6 hours, 11° C. of 2.59e+07 Volume; a αs1-I CN, 24 hours, 11° C. of 1.24e+07 Volume. The protein also yielded a αs1 CN, 6 hours, 11° C. of 2.1e+07 Volume and a αs1 CN, 24 hours, 11° C. of 2.9e+06 Volume.

B6: camel chymosin variant #146 (Q288G) (protein)
chain: GKVAREPLTSYLDSQYFGKIYIGTPPQEFTVVFDTGSSDLWVPSIYCKSNVCKNHHRFDPRKSSTFRNLGKPLSIHYGTGSMEGFLGYDTVTVSNIVDPNQTVGLSTEQPGEVFTYSEFDGILGLAYPSLASEYSVPVFDNMMDRHLVARDLFSVYMDRNGQGSMLTLGAIDPSYYTGSLHWVPVTLQQYWQFTVDSVTINGVAVACVGGCQAILDTGTSVLFGPSSDILKIQMAIGATENRYGEFDVNCGNLRSMPTVVFEINGRDYPLSPSAYTSKDQGFCTSGFGGDNNSELWILGDVFIREYYSVFDRANNRVGLAKAI
Take B6: the (αSN1-1)/(αSN1), 6 hours, 11° C. stood at 0.9; the (αSN1-1)/(αSN1), 24 hours, 11° C. stood at 2.3; the αs1-I CN, 6 hours, 11° C. is 2.17e+07 Volume; the αs1-I CN, 24 hours, 11° C. turned out to be 2.85e+07 Volume. Further, the αs1 CN, 6 hours, 11° C. came to 2.38e+07 Volume and the αs1 CN, 24 hours, 11° C. is 1.23e+07 Volume.

B7: camel chymosin variant #144 (F223Y) (protein)
chain: GKVAREPLTSYLDSQYFGKIYIGTPPQEFTVVFDTGSSDLWVPSIYCKSNVCKNHHRFDPRKSSTFRNLGKPLSIHYGTGSMEGFLGYDTVTVSNIVDPNQTVGLSTEQPGEVFTYSEFDGILGLAYPSLASEYSVPVFDNMMDRHLVARDLFSVYMDRNGQGSMLTLGAIDPSYYTGSLHWVPVTLQQYWQFTVDSVTINGVAVACVGGCQAILDTGTSVLYGPSSDILKIQMAIGATENRYGEFDVNCGNLRSMPTVVFEINGRDYPLSPSAYTSKDQGFCTSGFQGDNNSELWILGDVFIREYYSVFDRANNRVGLAKAI
In the case of B7, the (αSN1-1)/(αSN1), 6 hours, 11° C. came out at 1; the (αSN1-1)/(αSN1), 24 hours, 11° C. worked out at 3.3; the αs1-I CN, 6 hours, 11° C. turned out to be 3.05e+07 Volume; the αs1-I CN, 24 hours, 11° C. worked out at 2.82e+07 Volume. Further, the αs1 CN, 6 hours, 11° C. was 3.12e+07 Volume and the αs1 CN, 24 hours, 11° C. amounted to 8.4e+06 Volume.

B8: camel chymosin variant #141 (F223N) (protein)
chain: GKVAREPLTSYLDSQYFGKIYIGTPPQEFTVVFDTGSSDLWVPSIYCKSNVCKNHHRFDPRKSSTFRNLGKPLSIHYGTGSMEGFLGYDTVTVSNIVDPNQTVGLSTEQPGEVFTYSEFDGILGLAYPSLASEYSVPVFDNMMDRHLVARDLFSVYMDRNGQGSMLTLGAIDPSYYTGSLHWVPVTLQQYWQFTVDSVTINGVAVACVGGCQAILDTGTSVLNGPSSDILKIQMAIGATENRYGEFDVNCGNLRSMPTVVFEINGRDYPLSPSAYTSKDQGFCTSGFQGDNNSELWILGDVFIREYYSVFDRANNRVGLAKAI
In turn, B8 showed a (αSN1-1)/(αSN1), 6 hours, 11° C. of 0.7; a (αSN1-1)/(αSN1), 24 hours, 11° C. of 2; a αs1-I CN, 6 hours, 11° C. of 2.57e+07 Volume; a αs1-I CN, 24 hours, 11° C. of 2.49e+07 Volume. This protein also returned a αs1 CN, 6 hours, 11° C. of 3.57e+07 Volume and a αs1 CN, 24 hours, 11° C. of 1.27e+07 Volume.

B9: camel chymosin variant #145 (F223I) (protein)
chain: GKVAREPLTSYLDSQYFGKIYIGTPPQEFTVVFDTGSSDLWVPSIYCKSNVCKNHHRFDPRKSSTFRNLGKPLSIHYGTGSMEGFLGYDTVTVSNIVDPNQTVGLSTEQPGEVFTYSEFDGILGLAYPSLASEYSVPVFDNMMDRHLVARDLFSVYMDRNGQGSMLTLGAIDPSYYTGSLHWVPVTLQQYWQFTVDSVTINGVAVACVGGCQAILDTGTSVLIGPSSDILKIQMAIGATENRYGEFDVNCGNLRSMPTVVFEINGRDYPLSPSAYTSKDQGFCTSGFQGDNNSELWILGDVFIREYYSVFDRANNRVGLAKAI
Consider B9, for which the (αSN1-1)/(αSN1), 6 hours, 11° C. amounted to 1.2; the (αSN1-1)/(αSN1), 24 hours, 11° C. came to 4.1; the αs1-I CN, 6 hours, 11° C. was 1.91e+07 Volume; the αs1-I CN, 24 hours, 11° C. was determined as 1.17e+07 Volume. This protein also displayed a αs1 CN, 6 hours, 11° C. of 1.57e+07 Volume and a αs1 CN, 24 hours, 11° C. of 2.8e+06 Volume.

B10: camel chymosin variant #143 (F223V) (protein)
chain: GKVAREPLTSYLDSQYFGKIYIGTPPQEFTVVFDTGSSDLWVPSIYCKSNVCKNHHRFDPRKSSTFRNLGKPLSIHYGTGSMEGFLGYDTVTVSNIVDPNQTVGLSTEQPGEVFTYSEFDGILGLAYPSLASEYSVPVFDNMMDRHLVARDLFSVYMDRNGQGSMLTLGAIDPSYYTGSLHWVPVTLQQYWQFTVDSVTINGVAVACVGGCQAILDTGTSVLVGPSSDILKIQMAIGATENRYGEFDVNCGNLRSMPTVVFEINGRDYPLSPSAYTSKDQGFCTSGFQGDNNSELWILGDVFIREYYSVFDRANNRVGLAKAI
The protein B10 gave a (αSN1-1)/(αSN1), 6 hours, 11° C. of 1.1; a (αSN1-1)/(αSN1), 24 hours, 11° C. of 2.4; a αs1-I CN, 6 hours, 11° C. of 2.62e+07 Volume; a αs1-I CN, 24 hours, 11° C. of 1e+07 Volume. The protein further showed a αs1 CN, 6 hours, 11° C. of 2.36e+07 Volume and a αs1 CN, 24 hours, 11° C. of 4.1e+06 Volume.
